Measured values: PMC4546514
Where “and” joins values, the source holds several entries; their conditions need not be identical. Equal entries are not always repeated. Where two headings read alike, the source gives them in different places.

Assays:
[1] = target: purified recombinant Ded1p (S. cerevisiae) (UniProt P06634); assay: cross-linking
[2] = target: purified recombinant Ded1p (S. cerevisiae) (UniProt P06634); assay: cross-linking; remark: listed apart in the source

stoichiometry N [1]: < 5 | stoichiometry N [2]: 2 and 3
Substance: purified recombinant Ded1p (from UniProt P06634 1-604) (natural protein; other documents disagree on this pair)
